Literature values, collected in US5993783A, “Method and apparatus for pulmonary administration of dry powder α1-antitrypsin” (Inhale Therapeutic Systems, priority 1998, dated 1999).

Settings: similar sheep model, Smith et al. 1989

**Q.** With “α1AT: α1-antitrypsin, a protease inhibitor with inhibitory activity toward neutrophil elastase” as the substance, how does the “rate of clearance of α1AT out of the lungs, % of the total rate of α1AT transported out of the lung” value read?
**A.** The value was 16.1±10.4%.
